Data as given in paper PMC4955127 (Biotechnology for Biofuels, 2016).
Blank lines part the entries; values can stand above or below the molecule they belong to.

Tests used:
Bgl3A = target: T1, Bgl3A (Evansstolkia leycettana, UniProt A0A1B0VFN7); experiment: glucose inhibition of pNPG hydrolysis; format: biochemical; conditions: product inhibition; substrate pNPG
T1 construct: mature enzyme without native signal peptide (residues 1-19 of 737 removed)
T1 sequence (A0A1B0VFN7 20-737): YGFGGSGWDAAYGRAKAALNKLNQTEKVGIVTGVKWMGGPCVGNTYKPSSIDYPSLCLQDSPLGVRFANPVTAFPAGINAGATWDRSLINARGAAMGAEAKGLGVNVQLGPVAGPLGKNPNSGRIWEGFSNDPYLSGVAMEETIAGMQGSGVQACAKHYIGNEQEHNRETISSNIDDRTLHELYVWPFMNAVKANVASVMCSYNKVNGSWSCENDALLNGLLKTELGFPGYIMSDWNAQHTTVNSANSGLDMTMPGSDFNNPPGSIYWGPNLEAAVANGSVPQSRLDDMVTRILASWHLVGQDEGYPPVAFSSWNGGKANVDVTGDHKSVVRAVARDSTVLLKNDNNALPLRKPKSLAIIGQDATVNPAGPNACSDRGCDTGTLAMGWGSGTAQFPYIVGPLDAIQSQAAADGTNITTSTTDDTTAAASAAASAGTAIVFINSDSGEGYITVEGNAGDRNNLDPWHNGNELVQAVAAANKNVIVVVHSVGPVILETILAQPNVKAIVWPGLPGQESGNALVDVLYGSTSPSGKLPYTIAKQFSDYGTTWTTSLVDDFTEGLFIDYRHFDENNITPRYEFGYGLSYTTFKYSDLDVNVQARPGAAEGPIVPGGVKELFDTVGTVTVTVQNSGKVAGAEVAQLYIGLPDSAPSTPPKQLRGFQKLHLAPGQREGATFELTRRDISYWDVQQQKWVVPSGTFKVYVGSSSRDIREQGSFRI

purified protein = substrate: O=[N+]([O-])c1ccc(O[C@@H]2O[C@H](CO)[C@@H](O)[C@H](O)[C@H]2O)cc1; experiment: purified protein; conditions: 100 mM Na2HPO4-citric acid, optimal conditions (pH 4.5, 75 °C), 5 min

- Ki (Bgl3A): 14 mM
Molecule: OC[C@H]1OC(O)[C@H](O)[C@@H](O)[C@@H]1O (some centres unmarked) [glucose]

B1: Bgl3A (Evansstolkia leycettana) (protein)
chain: T1 sequence (A0A1B0VFN7 20-737)
- Km (purified protein): 0.18 mM
- Vmax (purified protein): 1310 µmol/min/mg
- kcat (purified protein): 1660 s⁻¹
- kcat/Km (purified protein): 9.1e+06 M⁻¹ s⁻¹
